For assay [1], the target named is T1, recombinant human DR5 extracellular domain protein expressed in E. coli (human, UniProt O14763 56-210).
T1 construct: extracellular domain; also called death receptor 5; TRAIL-R2
Description: ELISA on plate-coated recombinant DR5 extracellular domain, single-site fit (GraphPad). On the procedure:
(§1) ELISA plates (Costar, USA) were coated with recombinant human DR4 or DR5 extracellular domain protein expressed in E. coli over night, blocked with 5% nonfat milk at room temperature for two hours. […] The absorbency at 492 nm was measured on a microtiter reader of enzyme-labelled machine, Wellscan MK3 (Thermo Labsystems, Finland).
(In an ELISA, binding on a coated surface is turned into a signal by an enzyme label.)

In assay [2] the target is T2, recombinant human DR4 extracellular domain protein expressed in E. coli (human, UniProt O00220 24-239).
T2 construct: extracellular domain; also called death receptor 4; TRAIL-R1
T2 sequence (O00220 24-239): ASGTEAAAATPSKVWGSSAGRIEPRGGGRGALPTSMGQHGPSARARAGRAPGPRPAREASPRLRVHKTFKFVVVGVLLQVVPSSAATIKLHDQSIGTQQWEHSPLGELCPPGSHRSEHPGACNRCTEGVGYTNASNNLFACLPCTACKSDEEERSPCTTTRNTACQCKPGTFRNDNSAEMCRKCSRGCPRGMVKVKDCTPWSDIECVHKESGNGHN
Description: ELISA, plate coated with recombinant DR4 extracellular domain. On the procedure: as §1

B1: monoclonal antibody AD5-10 against human TRAIL receptor DR5 (antibody, IgG3, V domains shown)
VH: QIQLVQSGPELKKPGETVKISCKASGYTFTDFSMNWVKQAPGKGLKWMGWINTETGEPTYADDFKGRFALSMETSASTAYLQINNLKNEDTATYFCVRIDYWGQGTTLTVSS
VL: DVVMTQTPLSLPVSLGDQASISCRSSQSLVHSNGNTYLHWYLQKPGQSPKLLIYKVSNRFSGVPDRFSGSGSGTDFTLKISRVEAEDLGVYFCFQSTHVPHTFGGGTKLEIKR
notes: Murine hybridoma antibody (CGMCC 1192), subtype IgG3 kappa; also called anti-human TRAIL receptor DR5 mAb; mAb DR5
Consider B1, for which the Kd (usually the concentration at which binding is half-saturated) in assay [1] came to 0.3 nM. Besides, in assay [2], the binding result was “no binding”.

Source of the values: US20100080806A1 (INSTITUTE OF BASIC MEDICAL SCIENCES OF CHINESE ACADEMY OF …, published 2010).
